In paper PMC3022805 (Journal of Biomedical Science, 2011):
Where a chain is given by its changes, count along the chain named. “And” between values parts separate entries of the source, which are not always exact repeats. Equal values may be shown once.

B1: apoE3-(72-166) (domain or fragment, human, UniProt P02649 90-184, looked up)
chain: KAYKSELEEQLTPVAEETRARLSKELQAAQARLGADMEDVCGRLVQYRGEVQAMLGQSTEELRVRLASHLRKLRKRLLRDADDLQKRLAVYQAGA
notes: 12 kDa; numbers count on: the mature protein of 299 amino acids; source: E. coli, purified
B2: apoE4-(72-166) (domain or fragment, human, UniProt P02649 90-184, looked up)
chain: B1 chain with C41R
notes: as for B1
B3: apoE2-(72-166) (domain or fragment, human, UniProt P02649 90-184, looked up)
chain: B1 chain with R87C
notes: 12 kDa; numbers count on: the mature protein of 299 amino acids; cDNA amplified with the printed primers and ligated NdeI-XhoI into pET-29a(+); source: E. coli, purified

Assays:
[1] = biological target: the molecule itself; test: AUC; sedimentation velocity and sedimentation equilibrium fitted together to a global discrete species model (SEDPHAT); PBS pH 7.3 with 5 mM DHPC (submicellar), 20°C
[2] = biological target: the molecule itself; test: AUC; sedimentation velocity and sedimentation equilibrium fitted together to a global discrete species model (SEDPHAT); PBS pH 7.3 with 50 mM DHPC (micelles), 20°C
[3] = biological target: the molecule itself; test: AUC; sedimentation velocity (42,000 rpm, 0.5 mg/ml) and sedimentation equilibrium (10,000, 15,000, 20,000 rpm, 18 h each) fitted together to a global discrete species model (SEDPHAT); PBS pH 7.3, 20°C, no DHPC

| Protein | stoichiometry N [1] | stoichiometry N [2] | stoichiometry N [3] |
| --- | --- | --- | --- |
| B1 | 4 | 2 | 6 |
| B2 | – | 2 | 4 |
| B3 | – | 4 | 2 and 6 |
